The DeepSol protein solubility set

Experiment: soluble on expression in E. coli; label from the status in PepcDB or PDB records

Sequence	soluble on expression in E. coli
MGHHHHHHSHMMPAERRLPLSFVLDVLEGRAQHPGVLYVQKQCSNLPSELPQLLPDLESHVPWASEALGKMPDAVNFWLGEAAAVTSLHKDHYENLYCVVSGEKHFLFHPPSDRPFIPYELYTPGTYQPSDRPFIPYELYTPATYQLTEEGTFKVVDEEAMEKVPWIPLDPLAPDLARYPSYSQAQALRCMVRAGEMLYLPALWFHHVQQSQGCIAVNFWYDMEYDLKYSYFQLLDSLTKASGLD	soluble
MAGSDPAAPAAPAAAAPDTVKILIAGGFGVGKTTMVGSVSEIAPLRTEEPLTAAGLDVDDLDGIAEKDATTVALDFGRITIGSELVLYLFGTPGQQRFWFMWNDLAIGALGAVVLIDVRRPESSFAAVDFFERRGIPFVIGVNGFHGLHPYTPEEIREALALPERAQVLLCDARERESCRDVLIALIDQLIAARLEHHHHHH	not soluble
SRSKQKSRRRCFQCQTKLELVQQELGSCRCGYVFCMLHRLPEQHDCTFDHMGRG	soluble
MPQVETTSVFRADLLKEMESSTGTAPASTGAENLPAGSALLVVKRGPNAGARFLLDQPTTTAGRHPESDIFLDDVTVSRRHAEFRINEGEFEVVDVGSLNGTYVNREPRNAQVMQTGDEIQIGKFRLVFLAGPAELEHHHHHH	soluble
MWRSCLRLRDGGRRLLNRPAGGPSASMSPGPTIPSPARAYAPPTERKRFYQNVSITQGEGGFEINLDHRKLKTPQAKLFTVPSEALAIAVATEWDSQQDTIKYYTMHLTTLCNTSLDNPTQRNKDQLIRAAVKFLDTDTICYRVEEPETLVELQRNEWDPIIEWAEKRYGVEISSSTSIMGPSIPAKTREVLVSHLASYNTWALQGIEFVAAQLKSMVLTLGLIDLRLTVEQAVLLSRLEEEYQIQKWGNIEWAHDYELQELRARTAAGTLFIHLCSESTTVKHKLLKE	not soluble
MKKDLISVVMSAYNSEKFISDSISSILDQTYENWELIIINDASSDNTLKIVNQFSEKDPRIKVIDNENNLGLTISLNIGINNSKGEFIARLDSDDFAEPSRLEKELDHLHAYPEAGLVGSGAHLINSSGNKIGSMNVMSQPYFVNRFLINLNPFIHSSIMVRKKALDNVGSYREKFRYSQDYDLILRLSDKYKLSNIALPLIRWRVSDSSVTMQHHTLQRIYADIAREFAIERRNSGHDSYESTEFDTLIHEMRIRNQGRYLCDHGVYDLLFNKKYKEGCSELIKGISKGGFPYNSFYRGITQVISKVNIQLEHHHHHH	not soluble
MTKEAVLYKKEDGRIRCLACARKCLIGEGQVGFCGVRSVRNGKLYLDVYGKIAAAHIDPIEKKPLVHFNPGSKVFSFSTYGCNWMCMYCQNYDISQRRKAEGVELSPEEIVELAMGYDVDGMTYTYNEPAIFSEFAHDVGIVAKRYGLFNTMVSNGYWTPNLVDYVKDFLDAVTIDFKGNGEQKFLRRYTGATSAEPIIETASELSKKGIHVEITDLIIPQIGDDLQAAKQLLTKLYDQLGADIPIHFLRFHPDYKLNYIPWTPVETLERHYKLAKELGFKFVYVGNVPGHPYENTYCPNCGNLVIRRYSFDILEWHLTEDMRCKFCGYKLPIRGKLSRHAFKERFEPVFI	not soluble
SKKVIGKKRAHAEDDELDPMDPSSYSDAPRGGWVVGLKGVQPRAADTTASTGIFFKFQITDLTKPDEKIEVLTKRDQIVFQGPLFQQRPYPSPGAVLRRNAEVASSQKKKPNSQFTEITKRGDGSDGLGDAD	soluble
MSQSEEQNKDIPSSSNFGNPANNGVNVPDAPARRLFDNTSDESDVSLDNDDKTGAETDGSSSSRGCLKSERSRKDHASTSSTRTVRAPQQVSWSFGAKPATPHSQPPAGLKKVPAYSATSSSSQAGPSASTSTARKSSLVGGRGSASSSGHTSPSPSESPARNAGCSSSGESNPDRSLTTPPLAPALKHSAKDGHYRGQRSMSLGGPAHEMLMSQLGGRQGNTVDCSPGEGDKVCLLVDQTRFLVSQRLLTSKPDTMLGRMFSMRASCGDLGADLVSPNERDEFEVADGMTSSCFRAILDYYQSGTMRCPSSVSVSELREACDYLLVPFNAQTVKCQNLHALLHELSNEGAREQFSQFLEEIILPQLVASTEHGERECHLVVLLDDDVVDWDDEYPPQMGEETTHVVYSTHLYKFFKYAENRDCAKQVLKERGLKKIRLGMEGYPTHKEKIKKRFNKAEVIYNYVQRPFVHCSWEKEEARSRHVDFACPIVKSKSNPSLAAAASDPLPQPAPLQQQHRVAVFGEAAPLAAHNRVDDQHFVQPLNQLMQQQAQLPQNNAMLGVNVQQQQHNHPLHSPPVNFQRNDREEE	soluble
MLAVVDEEGTPVAGAMGFAQVVRDGLVVDYIGAVDILRELKATLEESLGAELLKAGVAYPPGTSPGDQKALHYIAEAAGFNVIAALDEPTAANNVLNIEDGAVIDIGGGTTGTAVIGQGQVVCVADEPTGGTHVSLVIAGAYRLPFAEAEKLKMDSCKHQELLPIIKPVIEKIAGIIRQHIQEHPVDQVYLVGGTSCFTGFETIVAAELQRPVIKPANPFLVTPLGIALAAAKTCSNP	not soluble
MAHHHHHHMASVGRFVQTADPAVTALESPPLPTETRLWRQSPDCQSESDSNRVSGSVLDSVKSNGGPKHASTARLHASQDLPTSVTRFLCLSSSSNSAAAKDLRRQLLVVRDCCVALGNKVKGSELLLLGGSQLSRKVEAMADFNSCLGVIFAASLTFTGETEGVAKDTLCSVVEMLKSAQESGDEKVFRAAVVKIVNRILLCTPLRPPARNAAKETARKSAGKQEQHAEQEPKLEDECLDFLTVEDGVPVLLECVWKRWLRYFEDGYVRYVKKLMAEERQALEAAAAAAAADDYNGEEAQYVDGVSATTTQTISTVPLFTTCQDYWKSPASAYAQFCYILLAIFFVRTKDFSLNYLARVTKLVQYFTYQLEFEDGEPIAVRTDTDAEEDSAQSEDEDDDRTPPQQEGPRKEKQVHSLPMPEYDKAVTQRRFRMSRRSSSQGLVPTVVSFKKAEKPRRHCHKCFFTDALPGDLRPSVEAVRQEEAEAAARDSEEHSHLPVVRRSANLDLSEHSISPQREREQLDACDASMESVQGV	not soluble
MAMQLEICANSAASCRQAELGGATRVELCAGIPEGGTTPSAGEMAVARSLIAIPIHVIIRPRAGDFVYSSEEIEAMCYDIRVVRSLGMEGVVFGCLTPEGGYDEEANSRLLKEAQGMQLTFHRAFDVCAAPFEMLEKLIAAGFHRVLTSGCAPTALEGKDMIGALNKQATGRIGIMAGCGIRLGNIETLARHTGITQFHSSLRHDIPSSMRFRRPEVSMGGTVKIDEYSRPETSADMVRQAVDILQGILEHHHHHH	not soluble
GSAGERIYNISGNGSPLADSKEIFLTVPVGGGESLRLLASDLQRHSIAQLDPEALGNIKKLSNRLAQICSSIRTHK	soluble
MEGEYRLTRSYAVVDITAQVDDSAILEPFACVMARARIGPRTRVGAHSVVGVGVSVGADCCIYHHVTLLNCDIGDRCVIHSGVAIGQDGFGFEVDQQTGKVRKKPQELSVRIGNEVEIGANTCIDRGSWRDTLIEDAVKIDNLVQIGHNVQVGANTFICGQAGVAGSTKIGRYCRFGGRSGAVDHLEIGDHVDVAANSVLTRNAPGHAVYAGFPAMPMREWRHQQVTLRRLSRAGKRQVDVSADDPEFPK	not soluble
MGIIDKIKAIEEEMARTQKNKATEHHLGLLKGKLARYRQQLLADEAGSGGGGGSGFEVAKSGDARVVLIGYPSVGKSSLLGKITTTKSEIAHYAFTTLTSVPGVLKYQGAEIQIVDLPGIIYGASQGKGRGRQVVATARTADLVLMVLDATKSEHQRASLEKELENVGIRLNKEKPNIYYKKKETGGVKVTFTSPPKTNLTEQAIKMILRDYRIHNAEVLVRDDQCTIDDFIDVINEQHRNYVKCLYVYNKIDAVSLEEVDKLAREPNTVVMSCEMDLGLQDVVEEIWYQLNLSRVYTKKRGVRPVFDDPLVVRNNSTIGDLCHGIHRDFKDKFKYALVWGSSAKHSPQKCGLNHRIDDEDVVSLFAK	soluble
MGRSHHHHHHGSLVPRGSEQGSNVNHLIKVTDQSITEGYDDSDGIIKAHDAENLIYDVTFEVDDKVKSGDTMTVNIDKNTVPSDLTDSFAIPKIKDNSGEIIATGTYDNTNKQITYTFTDYVDKYENIKAHLKLTSYIDKSKVPNNNTKLDVEYKTALSSVNKTITVEYQKPNENRTANLQSMFTNIDTKNHTVEQTIYINPLRYSAKETNVNISGNGDEGSTIIDDSTIIKVYKVGDNQNLPDSNRIYDYSEYEDVTNDDYAQLGNNNDVNINFGNIDSPYIIKVISKYDPNKDDYTTIQQTVTMQTTINEYTGEFRTASYDNTIAFSTSSGQGQGDLPPEK	soluble
MSMTVTTYLPIEAIKQQFCQSLDEQNTLILSAPPGAGKSTCLPLWLLTLPSLANKKIYLLQPRRLAVKNIATFLAAQLKEKVGETVGYRLRNDSKTSTSTRLEVITEGILTQIIQKDAELLGTALVVFDEFHERSLQGDLAFALTREVQTELRDDLKILLMSA	not soluble
MRKPTYHQINPLIRLKETELLSEQQFQQLLEAETVEDVRNMLKSTVYQPYLTETFEEKFDYHSSEALGSLYRWLYEMAPEPAVVTLYTMRFTFHNLKILTKAERTGKDFDYLYLEDGRYSLNTVKSAIHTKNSSELEPALLEVIRDVFAYLEEGGLPQAIDILYDRAFLQQQRKLADELGYEELTKEVIAFIDLTNLSTMARGIVQHQNSNFLSTVLSSAGSITKKELLTYAEKSLVEFTAFVRTTNYGQLLEKIINKETNELNLLAFEKLKDDYLTSMYENGRTVAFGPLPLLAFLNAKEVEWKNLRLILVGKHSGFSNEKIRERMRKVNGV	not soluble
MGSDKIHHHHHHMGKTLAEKIFSEHVGRDVKAGEIVLARVDIAMAQDGTGPLMINEFRELGFKEVKVPKAFLFIDHASPSPRKELSNSQKMMREFGKEMGVKVFDAGDGISHQILAEKYVKPGDLVAGADSHTCTAGGLGAFGTGMGSTDVAIIFGLGQNWFKVPETIKVVVNGKLQDGVYAKDIILEIARILGSDGATYKALEFHGSCIENMNVEDRLTISNMAVEVGAKAGLMPSDEKTREFLKKMGREEDFRELKADPDAVYETEIEIDATTLEPLVSLPHYVDNVRKVSEVEKEKIKIDQVFIGTCTNGRLQDLEIALKILEKHGKHPDVRLIVGPASRKVYMDALEKGIIKKFVELGAAVIPPGCGPCVGIHMGVLGDGERVLSTQNRNFKGRMGNPNAEIYLASPATAAATAVTGYITDPRRFI	not soluble
MSLLGAAESTLEFYDLSHPWGHGAPAWPYFEDVQIERLHGMAKSRVLTQKITTVMHSGTHIDAPAHVVEGTPFLDEIPLSAFFGTGVVVSIPKGKWGMVTAEDLQNATPDIRPGDIVVVNTGWHHKYADSAEYYAYSPGFDKKAGEWFAAKGVKAVGTDTQALDHPLATAIAPHSPAEAQGGLLPWAVREYEAQTGRKVLDDFPDWEPCHRAILSQGIYGFENVGGDLDKVTGKRVTFAAFPWRWVGGDGCIVRLVAIVDPTGSYRIETGKAVEGHHHHHH	soluble
GPGSMLGWSGTRFAAALHLRSVCSPRSAAAQGSHARAPRALSSSSSFVALFGSARGFSGTARRFSGTFHYRKVRLTPEDALDPLTKPTNIDKAALHVVSVPIGNLKDFSLRALDVLRGVDYIITTDRPATKTLLDLVNIPNQGRLIHYSRGNRSTSREKLVELLKGGRSMALVTTSGTPCIGDVGGELVQELQKSGIRVTAVPGASALMSALAISGLTTSAYESAKNDKRGADAAADGEAGLSPQTFEDGSFFFGNVLPKSHGARLRILRTIVAPATFPCVFYEVPYRLVMVLQDIASVLPHRFVYVTHELTKLNESLHADTAERLVGFYLRQEAQMLVKKGQLVLVIAGAGPKETAAWLEKEAAKRRRLRRTVSDLMKDAPPAASSHLESAPGTGGTTAAASSSRESSVTTAKEERRQRRKQRAELRRLRQRKKRERLIRAIESEQERLRVILSINRNDASRLM	not soluble
